The values that follow are results of earlier work, collected in paper PMC2660313.

The data set concerns the target Dystrophin WW domain+EF-hand (Drosophila melanogaster) (UniProt Q9VDW6).

Sequence of Dystrophin WW domain+EF-hand (Drosophila melanogaster) (Q9VDW6 2840-3106): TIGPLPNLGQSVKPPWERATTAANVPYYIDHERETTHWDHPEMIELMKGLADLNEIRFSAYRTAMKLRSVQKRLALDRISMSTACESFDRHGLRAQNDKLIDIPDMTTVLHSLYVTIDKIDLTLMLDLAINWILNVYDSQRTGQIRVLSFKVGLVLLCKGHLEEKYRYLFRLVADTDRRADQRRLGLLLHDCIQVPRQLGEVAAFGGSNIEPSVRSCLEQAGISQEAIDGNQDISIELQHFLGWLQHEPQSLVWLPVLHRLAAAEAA

With “p53 peptide (negative control) (from UniProt P04637)”, the dissociation constant (Kd) was 248 µM.

What is called Kd is the constant that tells how readily two partners part at equilibrium.
